The record followed here is publication PMC9491713.

The target in this assay is cSFB-RBPJ protein purified from 293F cells, Q06330. As to the kind of experiment: BLI. To be noted: remark: other sources report otherwise.

B1: FLAG-FBXO42 protein purified from 293F cells, Q6P3S6 1-717 (natural protein)
chain: MASSSDSEDDSFMAVDQEETVLEGTMDQDEEPHPVLEAEETRHNRSMSELPEEVLEYILSFLSPYQEHKTAALVCKQWYRLIKGVAHQCYHGFMKAVQEGNIQWESRTYPYPGTPITQRFSHSACYYDANQSMYVFGGCTQSSCNAAFNDLWRLDLNSKEWIRPLASGSYPSPKAGATLVVYKDLLVLFGGWTRPSPYPLHQPERFFDEIHTYSPSKNWWNCIVTTHGPPPMAGHSSCVIDDKMIVFGGSLGSRQMSNDVWVLDLEQWAWSKPNISGPSPHPRGGQSQIVIDDATILILGGCGGPNALFKDAWLLHMHSGPWAWQPLKVENEEHGAPELWCHPACRVGQCVVVFSQAPSGRAPLSPSLNSRPSPISATPPALVPETREYRSQSPVRSMDEAPCVNGRWGTLRPRAQRQTPSGSREGSLSPARGDGSPILNGGSLSPGTAAVGGSSLDSPVQAISPSTPSAPEGYDLKIGLSLAPRRGSLPDQKDLRLGSIDLNWDLKPASSSNPMDGMDNRTVGGSMRHPPEQTNGVHTPPHVASALAGAVSPGALRRSLEAIKAMSSKGPSASAALSPPLGSSPGSPGSQSLSSGETVPIPRPGPAQGDGHSLPPIARRLGHHPPQSLNVGKPLYQSMNCKPMQMYVLDIKDTKEKGRVKWKVFNSSSVVGPPETSLHTVVQGRGELIIFGGLMDKKQNVKYYPKTNALYFVRAKR
Take B1: the Kd amounted to 47 nM.
